What follows are substances tested against bi1_human TMBIM6 (UniProt P55061).
bi1_human TMBIM6, sequence (P55061 whole entry): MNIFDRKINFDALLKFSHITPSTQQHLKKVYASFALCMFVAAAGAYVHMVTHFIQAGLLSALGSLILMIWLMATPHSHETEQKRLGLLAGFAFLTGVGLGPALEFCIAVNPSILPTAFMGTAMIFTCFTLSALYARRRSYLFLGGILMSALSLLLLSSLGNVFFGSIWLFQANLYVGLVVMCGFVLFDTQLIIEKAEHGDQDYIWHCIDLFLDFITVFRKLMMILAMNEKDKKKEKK

Effect of a mutation on the interaction, with no effect:
Presenilin-1 (Homo sapiens) (from UniProt P49768) I143V
Presenilin-1 (Homo sapiens) (from UniProt P49768) I439V
Presenilin-1 (Homo sapiens) (from UniProt P49768) L381V
Presenilin-1 (Homo sapiens) (from UniProt P49768) M233L
Presenilin-1 (Homo sapiens) (from UniProt P49768) P284S
Presenilin-1 (Homo sapiens) (from UniProt P49768) S169P
Presenilin-1 (Homo sapiens) (from UniProt P49768) V272A
